According to US20210269771A1 (RAMOT AT TEL AVIV UNIVERSITY, published 2021):

Assays:
[1] = biological target: T1, gp120 antigen of the YU2.DG HIV strain, His-tagged (HIV-1 strain YU2.DG, UniProt P35961 32-498); assay: flow cytometry on engineered primary human and murine B cells
T1 construct: domain: gp120; also called gp120-YU2.DG; gp120-YU2

[2] = biological target: T1, gp120 antigen of the YU2.DG HIV strain, …; assay: ELISA (FIG. 15A)
Description: Enzyme Linked Immunosorbent assay. […] Plates were washed with PBST and blocked for two hours with 5% BSA in PBST, washed again and detection antibodies, anti-mouse IgA(abcam) or anti-mouse IgG or anti-mouse IgG1 or anti-mouse IgM (Jackson ImmunoResearch) were provided for an additional incubation of two hours at 2 μg/ml in PBST. Before detection with QuantaBlu (ThermoFisher) according to manufacturer protocols, plates were washed for an additional round. Detection was done in a Synergy M1 Plate reader (Biotek). The concentration of antigen specific antibodies was determined by reference to the dilution factor of the standard curve.

Row | Binder | binding result [1] | binding result [2]
1 | 3BNC117 expressed as a membranal B cell receptor (BCR) on engineered B cells (antibody, V domains shown, also called 3BNC117 BCR; ADN171) VH: QVQLLQSGAAVTKPGASVRVSCEASGYNIRDYFIHWWRQAPGQGLQWVGWINPKTGQPNNPRQFQGRVSLTRHASWDFDTFSFYMDLKALRSDDTAVYFCARQRSDYWDFDVWGSGTQVTVSS VL: DIQMTQSPSSLSASVGDTVTITCQANGYLNWYQQRRGKAPKLLIYDGSKLERGVPSRFSGRRWGQEYNLTINNLQPEDIATYFCQVYEFVVPGTRLDLK | binds | –
2 | 3BNC117 antibody, recombinant, expressed in Expi293F cells and purified (antibody, V domains shown, also called pADN210 (light chain) / pADN211 (heavy chain)) VH: QVQLLQSGAAVTKPGASVRVSCEASGYNIRDYFIHWWRQAPGQGLQWVGWINPKTGQPNNPRQFQGRVSLTRHASWDFDTFSFYMDLKALRSDDTAVYFCARQRSDYWDFDVWGSGTQVTVSS VL: DIQMTQSPSSLSASVGDTVTITCQANGYLNWYQQRRGKAPKLLIYDGSKLERGVPSRFSGRRWGQEYNLTINNLQPEDIATYFCQVYEFVVPGTRLDLK | – | binds
